This note sets out measurements from the RNAGym collection of RNA variant scans (doi:10.1093/molbev/msab373).

Sequences and labels used below:
B1: Azoarcus group I ribozyme (parent)
chain: GUGCCUUGCGCCGGGAAACCACGCAAGGGAUGGUGUCAAAUUCGGCGAAACCUAAGCGCCCGCCCGGGCGUAUGGCAACGCCGAGCCAAGCUUCGGCGCCUGCGCCGAUGAAGGUGUAGAGACUAGACGGCACCCACCUAAGGCAAACGCUAUGGUGAAGGCAUAGUCCAGGGAGUGGCGAAAGUCACACAAACCGG

This data set covers variants of B1. Put plainly: reverse-splicing fitness (ratio to wild type); higher = more active; in vitro selection; Mg2+ level not given. The method in brief:
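An in vitro group I ribozyme library with randomized positions was T7-transcribed and gel-purified. In triplicate, 10 pmol RNA in EPPS pH 7.5 was reacted with 50 pmoles of a 30-nt RNA substrate for 1 h at 37 °C across several added MgCl2 levels (1–48 mM), then stopped with EDTA. Products were reverse transcribed from a substrate-complementary primer, PCR-amplified and sequenced (HiSeq 4000). Fitness is a variant's read proportion after selection over that before, normalised to wild type.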
Consider C82G A120U A145C C150A U176C, for which the reverse-splicing fitness is 0.00532. Next, C82G A120U A145C C150A U176G: 0.00299. For the variant C82G A120U A145C C150A U176A, the reverse-splicing fitness was 0.00467. Next, C82G A120G A145U C150A U176A: 0.0105. As to C82G A120G A145U C150A U176C, the reverse-splicing fitness was found to be 0.0139. As to C82G A120G A145U C150A U176G, the reverse-splicing fitness stood at 0.00553. As for C82G A120U A145C U176C, the figure is 0.0798.

As for C82G A120U A145C U176G, the reverse-splicing fitness stood at 0.0211. Next, C82G A120U A145C U176A: 0.0712. As for C82G A120G C169U, the figure is 0.0237; as for C82G A120G C169A, 0.0302. Next, C82G A120G C169G: 0.0529; C82G A120G C150U C169A U176G: 0.00527.

Regarding C82G A120G C150U C169A U176C, the reverse-splicing fitness is 0.0189. Next, C82G A120G C150U C169A U176A: 0.0184.

Regarding C82G A120C C169U, the reverse-splicing fitness worked out at 0.0232.

Turning to C82G A120G A145U C150U C169A, the reverse-splicing fitness turned out to be 0.0199.

With C82G A120G A145U C150U C169G, the reverse-splicing fitness was 0.0343.

As to C82G A120G A145U C150U C169U, the reverse-splicing fitness came out at 0.0183. As for C82G A120G U176C, the figure is 0.0208; as for C82G A120G U176G, 0.00803. Next, C82G A120G U176A: 0.0149; C82G A120G A145G C150G C169U: 0.0109; C82G A120G A145G C150G C169A: 0.0111. For C82G A120G A145G C150G C169G, the reverse-splicing fitness came to 0.0108. As for C82G A120G A145C C150A C169G U176G, the figure is 0.00456. On to C82G A120G A145C C150A C169G U176C, for which the reverse-splicing fitness is 0.0136.

Take C82G A120G A145C C150A C169G U176A: the reverse-splicing fitness amounted to 0.0232. Take C82G A120G A145U C169A: the reverse-splicing fitness worked out at 0.0302. As to C82G A120G A145U C169G, the reverse-splicing fitness came out at 0.0523. Next, C82G A120G A145U C169U: 0.0235; C82G A120G A145C C150A: 0.00852. As to C82G A120G A145C C150G, the reverse-splicing fitness is 0.00798. Next, C82G A120G A145C C150U: 0.0111. Next, C82G A120G C150G C169A U176A: 0.0109.

Take C82G A120G C150G C169A U176G: the reverse-splicing fitness is 0.00588. Next, C82G A120G C150G C169A U176C: 0.0102; C82G A120G C150U U176A: 0.0117.

Take C82G A120G C150U U176G: the reverse-splicing fitness worked out at 0.0083. Next, C82G A120G C150U U176C: 0.0192; C82G A120G A145U C150A C169U: 0.00806. As for C82G A120G A145U C150A C169G, the figure is 0.00926; as for C82G A120G A145U C150A C169A, 0.00985.

Turning to C82G A120G A145U C169A U176A, the reverse-splicing fitness turned out to be 0.0122. Next, C82G A120G A145U C169A U176G: 0.00363; C82G A120G A145U C169A U176C: 0.0199; C82G A120G A145G C150G C169A U176G: 0.0077.

Turning to C82G A120G A145G C150G C169A U176A, the reverse-splicing fitness is 0.013.

As for C82G A120G A145G C150G C169A U176C, the reverse-splicing fitness stood at 0.013. As for C82G A120G A145U C150G C169G, the figure is 0.0107; as for C82G A120G A145U C150G C169A, 0.0112.

On to C82G A120G A145U C150G C169U, for which the reverse-splicing fitness turned out to be 0.01. As for C82G A120G A145G C150A C169A U176C, the figure is 0.0228; as for C82G A120G A145G C150A C169A U176G, 0.00618; as for C82G A120G A145G C150A C169A U176A, 0.0199. Next, C82G A120G C150G U176C: 0.0105; C82G A120G C150G U176A: 0.00652; C82G A120G C150G U176G: 0.00387. On to C82G A120G C150G C169U, for which the reverse-splicing fitness is 0.00956. Next, C82G A120G C150G C169A: 0.00981. As for C82G A120G C150G C169G, the reverse-splicing fitness amounted to 0.00959. As to C82G A120G A145C C150A C169U U176C, the reverse-splicing fitness turned out to be 0.0106. As for C82G A120G A145C C150A C169U U176A, the figure is 0.0196. With C82G A120G A145C C150A C169U U176G, the reverse-splicing fitness was 0.00463. Consider C82G A120G C150U C169G U176C, for which the reverse-splicing fitness came out at 0.0246. As for C82G A120G C150U C169G U176G, the figure is 0.00485; as for C82G A120G C150U C169G U176A, 0.0177. As for C82G A120G A145C C150A U176C, the figure is 0.00828; as for C82G A120G A145C C150A U176A, 0.0102. Next, C82G A120G A145C C150A U176G: 0.00453; C82G A120U A145C C169A U176A: 0.00185. Turning to C82G A120U A145C C169A U176C, the reverse-splicing fitness is 0.00168. Consider C82G A120U A145C C169A U176G, for which the reverse-splicing fitness stood at 0.00157. For C82G A120U A145C C150U U176A, the reverse-splicing fitness is 0.0158. As for C82G A120U A145C C150U U176C, the figure is 0.0197; as for C82G A120U A145C C150U U176G, 0.00871. As for C82G A120G A145U C169G U176G, the figure is 0.00374. Take C82G A120G A145U C169G U176C: the reverse-splicing fitness turned out to be 0.0227.

As for C82G A120G A145U C169G U176A, the reverse-splicing fitness was 0.0157. Regarding C82G A120U A145C C150U C169U U176G, the reverse-splicing fitness was 0.00165. As for C82G A120U A145C C150U C169U U176A, the figure is 0.00246.

On to C82G A120U A145C C150U C169U U176C, for which the reverse-splicing fitness was determined as 0.00227. Next, C82G A120G A145G C150G C169U U176G: 0.00717.
